Assay results from patent US11020455B2, “Colony stimulating factor for use in pancreatic or colon cancer treatment” (ENDOR TECHNOLOGIES, S.L., priority 2015, dated 2021).

B1: G-CSF: Granulocyte Colony Stimulating Factor, recombinant protein; Filgrastim (Amgen) used in the experiments (protein, UniProt P09919 31-207, looked up)
Granulocyte …: TPLGPASSLPQSFLLKCLEQVRKIQGDGAALQEKLVSECATYKLCHPEELVLLGHSLGIPWAPLSSCPSQALQLAGCLSQLHSGLFLYQGLLQALEGISPELGPTLDTLQLDVADFATTIWQQMEELGMAPALQPTQGAMPAFASAFQRRAGGVLVASHLQSFLEVSYRVLRHLAQP
modifications: N-terminal methionine (filgrastim)
notes: Granulocyte Colony Stimulating Factor, recombinant protein; Filgrastim (Amgen) used in the experiments

Columns and labels:
melanoma = conditions: subcutaneous long-term therapy after surgical resection; cited from earlier work
prostate cancer = conditions: patients with prostate cancer; cited from earlier work
sarcoma = conditions: monotherapy; cited from earlier work
[1] = system: neutrophils in peripheral blood; assay: Peripheral blood neutrophil levels in Colon-26 mice with Sephadex; type: in vivo, mouse; conditions: Sephadex-treated Colon-26 mice
Method: (§1) Antitumoral experiments were carried out on immunocompetent Balb/C tumor-bearing mice treated with Sephadex. Sephadex treatments were initiated when SC Colon-26 tumors reached a tumor volume ranging from 90 to 110 mm^3 and 0.5 mL of Sephadex 16% (Sephadex G-150, Pharmacia Fine Chemicals, Sweden) was subcutaneously injected in the left side flank of mice. Control animals included were Saline and Sephadex groups. In this experiment, G-CSF group was treated at a dose of 50 μg/Kg (Filgrastim—Amgen). There were 4 animals per group and their survival was monitored daily (FIG. 6). In this model, Sephadex distracts functional granulocytes from the blood into the Sephadex papula thus abolishing G-CSF antitumoral activity.
(§2) As peripheral blood is the only tissue routinely available from mice, the peripheral blood hemogram was also assessed in order to provide information about the behavior of blood cell populations after the subcutaneous injection of different G-CSF doses (Filgrastim—Amgen). […] Inventors especially focused their attention on the distribution of granulocytes in the peripheral blood which was determined at 1, 5 or 2, 6, 10 and 24 hrs after an initial dose of G-CSF subcutaneously. Peripheral blood granulocytes levels were analyzed in healthy (FIG. 7), and tumor-bearing mice (FIG. 8). […]

[2] = system: peripheral blood granulocytes; assay: Peripheral blood granulocyte levels in athymic nu/nu mice bearing MiaPaca SC tumors; type: in vivo, mouse; conditions: MiaPaca tumor-bearing nu/nu mice, first SC injection at 10, 25, 50 and 100 μg/kg, blood at 1.5 hr
Method: Depiction of peripheral blood granulocytes levels in Athymic nu/nu mice bearing MiaPaca SC tumors after the subcutaneous injection of G-CSF 10, 25, 50 and 100 μg/kg. Blood samples were taken at 1.5 hr and peripheral blood granulocytes levels are represented as a total number of granulocytes (GRA 10^9/L).
As peripheral blood is the only tissue routinely available from mice, the peripheral blood hemogram was also assessed in order to provide information about the behavior of blood cell populations after the subcutaneous injection of different G-CSF doses (Filgrastim—Amgen). The peripheral blood collected from the right femoral artery with a heparinized syringe in vacutainer blood collection tubes containing EDTA (Sarstedt Microvette® CB 300) were immediately subjected to differential blood cell counts (red blood cells (RBCs), white blood cells (WBCs), and blood platelets (PLTs)) and measurement of blood hemoglobin concentration using a blood cell differential automatic analyzer (ABACUS JUNIOR VET). The data for each experimental group were obtained from three to five mice. Inventors especially focused their attention on the distribution of granulocytes in the peripheral blood which was determined at 1, 5 or 2, 6, 10 and 24 hrs after an initial dose of G-CSF subcutaneously. Peripheral blood granulocytes levels were analyzed in healthy (FIG. 7), and tumor-bearing mice (FIG. 8). […]

Panc02 SC tumors = assay: Antitumoral efficacy in Panc02 SC tumor model (C57BJL6 mice); type: in vivo, mouse; conditions: Panc02, 100 μg/Kg SC daily, 20 days of treatment
Method: It is depicted the antitumoral efficacy of G-CSF in murine pancreatic SC tumors. C57BJL6 mice bearing Panc02 SC tumors were daily treated with subcutaneous G-CSF injection at a dose of 100 μg/kg. […]
(§3) Human pancreatic adenocarcinoma cell lines, Panc-1 and MiaPaca cells and the mouse pancreatic adenocarcinoma cells Panc02, were used for pancreatic cancer efficacy studies. Murine colorectal carcinoma cell line, Colon-26 cells, was used for colon cancer efficacy studies. […]
(§4) Mouse Models and Tumor Growth Studies Animal procedures met the guidelines of European Community Directive 86/609/EEC and were approved by the Local Ethical Committee. […] All animals were weighed and tumors were measured using manual caliper three times per week. SC tumor volumes were calculated according to the formula described by Attia and Weiss (Attia M A, et. al. “Immunology of spontaneous mammary carcinomas in mice. V. Acquired tumor resistance and enhancement in strain A mice infected with mammary tumor virus” Cancer Res. 1966, vol. 26, pp, 1787-1800), V (mm^3)=0.4×(larger diameter×smaller diameter^2). […]

Panc-1 SC tumors = assay: Antitumoral efficacy in Panc-1 SC tumor model (athymic nu/nu mice); type: in vivo, mouse; conditions: Panc-1, 10 μg/Kg SC daily, 48 days of treatment
Method: (§5) It is depicted the antitumoral efficacy of G-CSF in human pancreatic SC tumors. Athymic nu/nu mice bearing Panc-1 SC tumors were daily treated with subcutaneous G-CSF injection at a dose of 10 μg/Kg, while GE was injected intraperitoneal at a dose of 80 mg/Kg two times per week during the whole experiment. Total tumor volume (mm^3±SE) in saline (solid lines), G-CSF 10 μg/Kg (dashed lines) and GE 80 mg/kg (dotted) groups, for 48 days of treatment are represented.
as §3, §4

Colon-26 SC tumors [3] = assay: Effect of Sephadex on G-CSF antitumoral efficacy in Colon-26 model; type: in vivo, mouse; conditions: Colon-26 and Sephadex, 50 μg/Kg SC daily, 19 days
Method: Depiction of the antitumoral efficacy of G-CSF in colorectal SC tumors. BalbC mice bearing Colon-26 SC tumors, with and without Sephadex papula, were treated daily with subcutaneous G-CSF injection at a dose of 50 ug/kg. Total tumor volume (mm^3±SE) of saline (circle), G-CSF 50 μg/kg (square, abbreviated IT50), Sephadex-Saline (triangle), and Sephadex+G-CSF 50 μg/kg (cross, abbreviated IT-Sephadex.), for 19 days of treatment are represented.
as §1, with “activity. […]” for “activity.”

[4] = system: peripheral blood granulocytes; assay: Peripheral blood granulocyte levels after single subcutaneous G-CSF injection in healthy athymic nu/nu mice; type: in vivo, mouse
Method: (§6) Depiction of the peripheral blood granulocytes levels in healthy C57BJL6 and Athymic nu/nu mice after the subcutaneous injection of a single dose of G-CSF (10 μg/kg) in C57BJL6, and 10, 25, 50 and 100 μg/kg of G-CSF in Athymic nu/nu mice. Blood samples were taken at different time points and peripheral blood granulocytes levels are represented as a total number of granulocytes (GRA×10^9/L).
As peripheral blood is the only tissue routinely available from mice, the peripheral blood hemogram was also assessed in order to provide information about the behavior of blood cell populations after the subcutaneous injection of different G-CSF doses (Filgrastim—Amgen). The peripheral blood collected from the right femoral artery with a heparinized syringe in vacutainer blood collection tubes containing EDTA (Sarstedt Microvette® CB 300) were immediately subjected to differential blood cell counts (red blood cells (RBCs), white blood cells (WBCs), and blood platelets (PLTs)) and measurement of blood hemoglobin concentration using a blood cell differential automatic analyzer (ABACUS JUNIOR VET). The data for each experimental group were obtained from three to five mice. Inventors especially focused their attention on the distribution of granulocytes in the peripheral blood which was determined at 1, 5 or 2, 6, 10 and 24 hrs after an initial dose of G-CSF subcutaneously. Peripheral blood granulocytes levels were analyzed in healthy (FIG. 7), and tumor-bearing mice (FIG. 8). C57BJL6 healthy mice were injected with G-CSF 10 μg/kg and healthy athymic nu/nu mice were injected with different doses of G-CSF: 0, 10, 25, 50 and 100 μg/kg (FIG. 7). Athymic nu/nu mice bearing subcutaneous MiaPaca tumor were injected with G-CSF 10, 25, 50 and 100 μg/kg and blood was extracted at 1.5 hr (FIG. 8).

[5] = system: tumor-infiltrating granulocytes; assay: Tumor granulocytes (CD45+CD11b+Ly6G+) by flow cytometry in Colon-26 tumors; type: in vivo, mouse; conditions: 10 μg/Kg SC, day 5, flow cytometry
Method: Depiction of the tumor granulocyte levels, defined as a CD45+CD11b+Ly6G+ triple positive population, analyzed by flow cytometry from Colon-26 tumors treated with 10 μg/kg of G-CSF during 5 days. Granulocytes cells from tumor are represented as a % of positive cells±SE.
To evaluate the antitumoral capacity of G-CSF in murine colorectal carcinoma, immunocompetent Balb/C mice bearing Colon-26 tumors were treated when SC tumors reached a tumor volume ranging from 90 to 110 mm^3. For G-CSF therapy, Balb/C mice were randomly divided in Saline and G-CSF groups. G-CSF treatment (Filgrastim—Amgen) was applied subcutaneously every day during the whole experiment (FIG. 4). At day 5 of the experiments, 4 animals of each treatment were sacrificed and tumors were collected. Granulocytes (GRA) cells were detected by FACS, analyzing the markers of these cells: CD45+CD11b+Ly6G (FIG. 5). Details about each treatment are described in the present table: […]

[6] = system: peripheral blood granulocytes; assay: Peripheral blood granulocyte levels after single subcutaneous G-CSF injection in healthy C57BJL6 mice; type: in vivo, mouse
Method: as §6, §2

MiaPaca SC tumors = assay: Antitumoral efficacy in MiaPaca SC tumor model (athymic nu/nu mice); type: in vivo, mouse; conditions: 10 μg/Kg SC daily, 37 days after treatment
Method: as §5, with “MiaPaca” for “Panc-1”, “μg/kg,” for “μg/Kg,”, “μg/kg” for “μg/Kg”, “37” for “48”
as §3, §4

Colon-26 SC tumors [7] = assay: Antitumoral efficacy in Colon-26 SC tumor model (Balb/C mice); type: in vivo, mouse; conditions: Colon-26, 10 μg/Kg SC daily, 18 days of treatment
Method: It is depicted the antitumoral efficacy of G-CSF in mouse colorectal SC tumors. BalbC mice bearing colorectal SC tumors were daily treated with subcutaneous G-CSF injection at a dose of 10 μg/kg. Total tumor volume (mm^3±SE) in saline (solid lines) and G-CSF10 μg/kg (dashed lines) groups, for 18 days of treatment are represented.
Depiction of the antitumoral efficacy of G-CSF in colorectal SC tumors. BalbC mice bearing Colon-26 SC tumors, with and without Sephadex papula, were treated daily with subcutaneous G-CSF injection at a dose of 50 ug/kg. […]
as §4
Antitumoral experiments were carried out on immunocompetent Balb/C tumor-bearing mice treated with Sephadex. […] There were 4 animals per group and their survival was monitored daily (FIG. 6). […]

Row | Molecule | therapeutic effect in melanoma patients (melanoma) | therapeutic benefit in prostate cancer patients (prostate cancer) | therapeutic benefit in sarcoma (sarcoma) | neutrophils levels in peripheral blood after G-CSF injection [1] | peripheral blood granulocyte levels [2] | tumor inhibition compared to saline (Panc02 SC tumors) | tumor inhibition compared to saline (Panc-1 SC tumors) | tumor inhibition (Colon-26 SC tumors [3]) [%] | increase of granulocyte levels compared to untreated animals ([4]; single SC dose 10 μg/Kg) [fold] | increase of granulocyte levels compared to untreated animals ([4]; single SC dose 25 μg/Kg) [fold] | increase of granulocyte levels compared to untreated animals ([4]; single SC dose 50 μg/Kg) [fold] | increase of granulocyte levels compared to untreated animals ([4]; single SC dose 100 μg/Kg) [fold] | time of maximum peripheral blood granulocyte levels post-G-CSF injection ([4]; single SC injection) [h] | tumor-infiltrating granulocytes (CD45+CD11b+Ly6G+ triple positive population) [5] | increase of granulocyte levels compared to untreated animals ([6]; single SC dose 10 μg/Kg) [fold] | time of maximum peripheral blood granulocyte levels post-G-CSF injection ([6]; single SC injection) [h] | tumor inhibition compared to saline (MiaPaca SC tumors) | tumor inhibition (Colon-26 SC tumors [7])
1 | GM-CSF: Granulocyte Macrophage Colony Stimulating Factor, recombinant protein; only literature results cited | therapeutic effect | therapeutic benefit | did not reveal a therapeutic benefit |  |  |  |  |  |  |  |  |  |  |  |  |  |  | 
2 | B1 |  |  |  | smoothly recovered | increase in a dose response manner | around 50% | up to 90% | 50 | 2.5 | 3.5 | 3.7 | 3.5 | 6 | significant increase | 2.5 | 6 | up to 55% | up to 60%
